The values below come from patent US20040126784.

Sequence of Pim1 K67A mutant fused to GFP with a myc tag (chain, as listed by the source K67A): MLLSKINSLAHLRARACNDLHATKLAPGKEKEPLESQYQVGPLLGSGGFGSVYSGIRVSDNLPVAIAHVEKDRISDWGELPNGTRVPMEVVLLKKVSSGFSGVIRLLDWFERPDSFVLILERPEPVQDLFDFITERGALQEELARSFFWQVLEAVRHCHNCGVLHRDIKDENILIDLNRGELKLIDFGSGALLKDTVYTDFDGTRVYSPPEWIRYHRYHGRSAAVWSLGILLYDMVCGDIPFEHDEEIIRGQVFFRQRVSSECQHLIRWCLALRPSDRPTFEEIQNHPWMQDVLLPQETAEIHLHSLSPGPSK
Sequence of PIM1 D186N mutant fused to GFP with a myc tag (chain, as listed by the source D186N): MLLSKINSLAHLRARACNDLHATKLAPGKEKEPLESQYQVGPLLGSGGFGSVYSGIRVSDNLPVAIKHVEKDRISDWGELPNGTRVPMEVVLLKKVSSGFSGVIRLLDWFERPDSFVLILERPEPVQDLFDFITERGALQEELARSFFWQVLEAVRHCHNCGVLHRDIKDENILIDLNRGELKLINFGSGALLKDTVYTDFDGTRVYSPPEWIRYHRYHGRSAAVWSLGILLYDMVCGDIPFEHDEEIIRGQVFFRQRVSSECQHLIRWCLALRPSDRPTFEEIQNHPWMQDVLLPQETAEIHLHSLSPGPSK
Sequence of wild type PIM1 fused to GFP with a myc tag (chain, as listed by the source): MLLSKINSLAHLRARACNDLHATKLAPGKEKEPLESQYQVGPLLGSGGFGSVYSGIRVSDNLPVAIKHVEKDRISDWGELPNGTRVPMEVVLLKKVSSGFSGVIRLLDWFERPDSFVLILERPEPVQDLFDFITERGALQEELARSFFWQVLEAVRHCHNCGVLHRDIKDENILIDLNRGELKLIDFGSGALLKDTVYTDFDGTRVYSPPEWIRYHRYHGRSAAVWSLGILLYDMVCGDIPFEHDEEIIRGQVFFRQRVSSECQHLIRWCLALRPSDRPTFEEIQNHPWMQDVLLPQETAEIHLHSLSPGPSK

In this data set the test system is Histone H1.
“PIM1 D186N mutant fused to GFP with a myc tag”: the “kinase activity (immune complex kinase assay, 32P-ATP)” value (“kinase activity” below) was “Wild type PIM1 exhibited kinase activity, while the mutant PIM1 proteins did not”.

“wild type PIM1 fused to GFP with a myc tag”: the “kinase activity” value is “Wild type PIM1 exhibited kinase activity, while the mutant PIM1 proteins did not”.

Take “Pim1 K67A mutant fused to GFP with a myc tag”: the “kinase activity” value is “Wild type PIM1 exhibited kinase activity, while the mutant PIM1 proteins did not”.
